One may read the stoichiometry N as a count of units in the complex or per binding partner.

Six molecules from PMC8285477, “The molecular basis of regulation of bacterial capsule assembly by Wzc” (Nature Communications, 2021) can be followed below.

For assay [1], the target named is Wzc^K540M triple (715, 717 and 718) Tyr to Glu mutant (E. coli E69 (O9a:K30)) (UniProt P76387). The assay can be described thus: EM (kind not stated); particles of purified Tyr to Glu mutants of Wzc^K540M on EM grids, percentage of octamers (Supplementary Fig. 8a).
The target of assay [2] is Wzc^K540M double (717 and 718) Tyr to Glu mutant (E. coli E69 (O9a:K30)) (UniProt P76387). The assay is described as above.
Assay [3] concerns the target Wzc^K540M (E. coli E69 (O9a:K30)). The assay can be described thus: negative-stain EM; purified protein around 0.05 mg/ml on carbon-coated grids, 0.75% uranyl formate.
Assay [4] has the same target. Kind of assay: cryo-EM structure; purified protein ~2 mg/ml in LMNG, apo and with ADP and Mg2+; C1 and C8 reconstructions.
Assay [5] addresses Wzc^K540MΔMotif3 (E. coli E69 (O9a:K30)) (UniProt P76387). Kind of assay: cryo-EM 2D classification of particles; purified protein ~1.8-2 mg/ml vitrified on grids, reference-free 2D class averages.
For assay [6], the target named is Wzc^K540M4YE (E. coli E69 (O9a:K30)). The assay can be described thus: cryo-EM structure; purified protein ~2 mg/ml in LMNG, apo and with ADP and Mg2+; C1 and C8 reconstructions.
The target is the same in assay [7]. The assay can be described thus: cryo-EM 2D classification of particles; purified protein ~1.8-2 mg/ml vitrified on grids, reference-free 2D class averages.
The target in assay [8] is Wzb treated Wzc (E. coli E69 (O9a:K30), UniProt P76387 1-720). Described as above. Conditions: both partners purified.

Turning to “Wzc^K540M triple (715, 717 and 718) Tyr to Glu mutant (from UniProt P76387 1-720) (enzyme)”, the stoichiometry N in assay [1] was determined as 8. In assay [2], “Wzc^K540M double (717 and 718) Tyr to Glu mutant (from UniProt P76387 1-720) (enzyme)” returned a stoichiometry N of 8. As to “Wzc^K540M (from UniProt P76387 1-720) (enzyme)”, the stoichiometry N in assay [3] and in assay [4] was 8 throughout. Take “Wzc^K540MΔMotif3 (from UniProt P76387 1-720) (enzyme)”: the stoichiometry N in assay [5] is 8. “Wzc^K540M4YE (from UniProt P76387 1-720) (enzyme)”: the stoichiometry N in assay [6] was 8. In assay [7], this molecule had a percent of particles that are octamers of 50%.

B1: Wzb treated Wzc (enzyme)
chain: MTSVTSKQSTILGSDEIDLGRVIGELIDHRKLIISITSVFTLFAILYALLATPIYETDALIQIEQKQGNAILSSLSQVLPDGQPQSAPETALLQSRMILGKTIDDLNLQIQIEQKYFPVIGRGLARLMGEKPGNIDITRLYLPDSDDISNNTPSIILTVKDKENYSINSDGIQLNGVVGTLLNEKGISLLVNEIDAKPGDQFVITQLPRLKAISDLLKSFSVADLGKDTGMLTLTLTGDNPKRISHILDSISQNYLAQNIARQAAQDAKSLEFLNQQLPKVRAELDSAEDKLNAYRKQKDSVDLNMEAKSVLDQIVNVDNQLNELTFREAEVSQLYTKEHPTYKALMEKRQTLQEEKSKLNKRVSSMPSTQQEVLRLSRDVESGRAVYLQLLNRQQELNIAKSSAIGNVRIIDNAVTDPNPVRPKKTIIIVIGVVLGLIVSVVLVLFQVFLRRGIESPEQLEEIGINVYASIPISEWLTKNARQSGKVRKNQSDTLLAVGNPADLAVEAIRGLRTSLHFAMMEAKNNVLMISGASPSAGKTFISSNLAATIAITGKKVLFIDADLRKGYAHKMFGHKNDKGLSEFLSGQAAAEMIIDKVEGGGFDYIGRGQIPPNPAELLMHPRFEQLLNWASQNYDLIIIDTPPILAVTDAAIIGRYAGTCLLVARFEKNTVKEIDVSMKRFEQSGVVVKGCILNGVVKKASSYYRYGHNHYGYSYYDKK
modifications: dephosphorylated by phosphatase Wzb; about 0.1% octameric particles; C-terminal His6 omitted; the PDB entity is the K540M construct, reverted to K540 / dephosphorylated by phosphatase Wzb; about 0.1%
As to B1, in assay [8], the “stoichiometry N” value amounted to 8.
